Assay results taken from publication PMC2811012 (Nucleic Acids Research, 2009).

Columns and labels:
[1] = target: Mouse heterochromatin protein 1-beta chromodomain-containing region (amino acids 1–185) with N-terminal GST tag (mouse) (UniProt P83917); test: AlphaScreen or HTRF
[2] = target: Human M-phase phosphoprotein chromodomain-containing region (amino acids 50–120) with N-terminal GST tag (human) (UniProt Q99549); test: AlphaScreen or HTRF
[3] = target: T1, GST-MPP8 (MPP8 chromodomain) (Homo sapiens, UniProt Q99549); test: AlphaScreen competitive binding, GST-MPP8/b-H3K9me3
T1 sequence (Q99549 50-120): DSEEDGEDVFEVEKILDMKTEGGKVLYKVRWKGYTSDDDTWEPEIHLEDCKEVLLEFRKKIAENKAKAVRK

Chain of Mouse heterochromatin protein 1-beta chromodomain-containing region (amino acids 1–185) with N-terminal GST tag (mouse) (P83917 whole entry, the tested form may be a part): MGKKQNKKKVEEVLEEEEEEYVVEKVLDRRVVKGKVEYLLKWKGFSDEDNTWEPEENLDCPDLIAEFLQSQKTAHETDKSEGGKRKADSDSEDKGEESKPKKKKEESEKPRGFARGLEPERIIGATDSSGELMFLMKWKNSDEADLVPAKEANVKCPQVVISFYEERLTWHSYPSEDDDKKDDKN

biotinylated histone H3 peptide trimethylated at Lys4
AlphaScreen signal [1]: 7800 c.p.s. | AlphaScreen signal [2]: 26000 c.p.s.

C[C@H](N)C(=O)N[C@@H](CCCNC(=N)N)C(=O)N[C@H](C(=O)N[C@@H](CCCCN)C(=O)N[C@@H](CCC(N)=O)C(=O)N[C@H](C(=O)N[C@@H](C)C(=O)N[C@@H](CCCNC(=N)N)C(=O)N[C@@H](CCCCN)C(=O)N[C@@H](CO)C(=O)N[C@H](C(=O)NCC(=O)NCC(=O)N[C@@H](CCCCN)C(=O)N[C@@H](C)C(=O)N1CCC[C@H]1C(=O)N[C@@H](CCCNC(=N)N)C(=O)N[C@@H](CCCCN)C(=O)O)[C@@H](C)O)[C@@H](C)O)[C@@H](C)O [Peptide H3]
EC50 [3]: 160 µM

biotinylated histone H3 peptide trimethylated at Lys9
fold AlphaScreen signal over b-H3K4me3 [1]: 3.3 fold | fold AlphaScreen signal over b-H3K4me3 [2]: 1.7 fold
